US6913892
Where no end group is shown, it is not given here.

Molecular target: Y2-like receptor population expressed by human SK-N-Be(2) neuroblastoma cells
Assay: 125I-PYY displacement, SK-N-Be(2) membranes

Ki: 0.86 nM
Binder: SPEELSRYYASLRHYLNLVTRQRY-NH2 (peptide, UniProt P68005 13-36, looked up) [porcine PYY13-36]
